For this assay, the target named is HA-tagged Patched 1 (Ptc1), expressed in 293T cells (UniProt Q61115). Kind of assay: pull-down.

Drawing on paper PMC3044117, this text covers Kd for one substance.

Chain of UniProt Q61115 (Q61115 whole entry): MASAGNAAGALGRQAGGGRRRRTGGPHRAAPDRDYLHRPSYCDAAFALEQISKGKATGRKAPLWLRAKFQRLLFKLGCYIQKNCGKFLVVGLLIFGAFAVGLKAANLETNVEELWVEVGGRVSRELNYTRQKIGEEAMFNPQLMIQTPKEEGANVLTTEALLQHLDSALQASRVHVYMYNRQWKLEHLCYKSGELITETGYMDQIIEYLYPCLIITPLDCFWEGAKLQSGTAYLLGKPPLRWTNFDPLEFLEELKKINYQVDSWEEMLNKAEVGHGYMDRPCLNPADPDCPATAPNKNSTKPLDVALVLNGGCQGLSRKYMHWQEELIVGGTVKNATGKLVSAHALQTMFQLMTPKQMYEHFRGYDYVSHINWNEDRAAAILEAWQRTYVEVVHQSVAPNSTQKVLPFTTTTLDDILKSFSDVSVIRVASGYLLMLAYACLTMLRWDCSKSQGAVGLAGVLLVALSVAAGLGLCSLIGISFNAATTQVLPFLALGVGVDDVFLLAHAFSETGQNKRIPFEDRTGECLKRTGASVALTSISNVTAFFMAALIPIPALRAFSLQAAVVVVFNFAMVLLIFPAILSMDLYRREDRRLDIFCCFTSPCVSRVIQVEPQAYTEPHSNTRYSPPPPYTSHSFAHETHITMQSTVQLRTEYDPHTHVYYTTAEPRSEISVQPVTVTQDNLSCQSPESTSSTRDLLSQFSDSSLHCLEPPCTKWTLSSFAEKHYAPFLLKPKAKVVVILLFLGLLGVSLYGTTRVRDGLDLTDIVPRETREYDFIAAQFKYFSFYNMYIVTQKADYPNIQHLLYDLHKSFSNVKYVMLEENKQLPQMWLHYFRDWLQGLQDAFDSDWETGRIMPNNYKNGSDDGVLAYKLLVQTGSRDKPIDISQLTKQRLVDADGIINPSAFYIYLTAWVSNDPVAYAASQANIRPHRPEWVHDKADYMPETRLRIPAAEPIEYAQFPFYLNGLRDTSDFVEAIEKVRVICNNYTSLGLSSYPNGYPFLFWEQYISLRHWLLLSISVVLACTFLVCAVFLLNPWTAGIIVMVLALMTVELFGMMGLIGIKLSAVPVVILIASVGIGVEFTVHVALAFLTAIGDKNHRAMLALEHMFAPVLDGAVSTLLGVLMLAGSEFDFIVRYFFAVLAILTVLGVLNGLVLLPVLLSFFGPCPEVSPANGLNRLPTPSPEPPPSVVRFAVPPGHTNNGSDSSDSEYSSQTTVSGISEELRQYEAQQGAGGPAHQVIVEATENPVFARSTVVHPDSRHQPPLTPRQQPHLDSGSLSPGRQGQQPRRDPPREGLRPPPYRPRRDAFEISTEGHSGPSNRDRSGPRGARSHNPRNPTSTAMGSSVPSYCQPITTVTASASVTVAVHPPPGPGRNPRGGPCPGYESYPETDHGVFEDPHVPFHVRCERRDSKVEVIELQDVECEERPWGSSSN

For the substance “GPC5-AP fusion protein in conditioned medium”, the Kd stood at 37 nM. This counts as double-digit nanomolar.

A word on the Kd: it is the equilibrium constant for the complex coming apart. Low values mean higher affinity, high ones lower affinity.
